The values that follow come from patent US7037663B2, “Human zona pellucida protein 3 and uses thereof” (Eastern Virginia Medical School, priority 1998, dated 2006).

Series [1] has as its system human sperm. The conditions noted are these: Dong et al 2000; cited from earlier work.
Series [2] relates to sperm.
Method: Semen samples and sperm capacitation—Semen was collected by masturbation by healthy, fertile men (donors). Sperm motion parameters (% progressive motility, curvilinear and straight-line velocities, amplitude of lateral head displacement and linearity) were assessed with a computer analyzer (HTM-IVOS; Hamilton-Thorn Research, Danvers, NA). […] After liquefaction, samples were washed twice in Ham's F-10 (Gibco Lab., Grand Island, N.Y.) supplemented with 0.5% human serum albumin (HSA; Irvine Sci., Santa Ana, Calif.). The final undisturbed pellet was gently over layered with 1 ml of the culture medium and the specimen was incubated for 1 hour at 37° C. in 5% CO2 in humidified air to achieve separation of the highly motile sperm fractions by swim-up. Thereafter, aliquots were incubated under capacitating conditions (in Ham's F-10 plus 0.5% HSA at 37° C. in 5% CO2 in humidified air) for various periods of time according to the experimental design.
In series [3] the test system is sperm-zona pellucida binding. The series can be described thus: Hemizona assay (HZA), competitive inhibition of sperm-zona binding, first series. The series is classed as cell-based, human. An excerpt:
An inverted, phase-contrast microscope equipped with a micromanipulation system was routinely employed to cut the oocyte into halves to obtain matching hemizonae. Oocytes used in the experiments were obtained from surgically-removed ovarian tissue or discarded from IVF therapy under approval of the Institutional Review Board at Eastern Virginia Medical School. The hemizonae were washed in PBS to completely deplete the cytoplasm. Sperm samples were from healthy fertile donors. A swim-up procedure was applied to obtain motile sperm, which were then adjusted to 0.5 million/ml in Human Tubal Fluid (HTF) supplemented with 0.3% Human Serum Albumin (HSA) for hemizona assay. In one Petri dish, one droplet of 100 ul of sperm suspension was placed as a control. Another droplet of sperm was pre-treated with rhZP3. One hemizona was placed into the control droplet and the matching hemizona was placed in the sperm droplet treated with rhZP3. Five pairs of hemizona were used for each experiment. All dishes were incubated at 37° C., 5% CO2 for 4 hours. Each hemizona was removed and rinsed 15 times in PBS, and transferred to the counting dish. The number of sperm bound to the surface of each hemizona was counted under phase microscopy. The HZI was calculated to evaluate rhZP3-binding activity (competitive inhibition) as follows: number of sperm bound for treatment/number of sperm bound for control×100.

The subject of series [4] is sperm-zona pellucida binding. The series can be described thus: Competitive hemizona assay (HZA), second series. Format: cell-based, human. Here is the method: Measurement of sperm-zona pellucida binding-Salt-stored, immature (prophase I) human oocytes were used in the experiments. Oocytes were desalted and microbisected into matching halves (hemizonae) using a micromanipulator (Narishige, Tokyo, Japan) following techniques published elsewhere (10, 11, 19). Control and test sperm droplets (100 μl each of a final dilution of 0.5×10^6 motile sperm/ml 1 hour post-swim-up) were incubated separately under heavy mineral oil (Sigma) with a hemizona from the same matching pair for 4 hours at 37° C. in 5% CO2 in humidified air. After the co-incubation period, the hemizonae were washed to remove loosely attached sperm using a finely drawn glass pipette, and the sperm tightly bound to the outer zona surface were counted under phase microscopy (×200). The hemizona assay index (HZI) was calculated as follows: # of sperm bound for test sample/# of sperm bound for control sample×100. An HZI of 100 indicates no inhibition whereas an HZI of 0 reflects complete inhibition of binding.
Swim up sperm were incubated with rhZP3 (test, at a final concentration of 0, 10, 30, 100, 250, 500 or 2,000 ng/ml of protein) or in culture medium (control) for 30 min under identical conditions. After 30 min, a hemizona was added to the test sperm droplet whereas the matching hemizona from the same pair was added to the control sperm droplet. Three pairs of matching hemizonae were tested per rhZP3 concentration per semen sample in a total of three ejaculates from different donors.
Additional competitive HZAs were performed where the test sperm droplet (rhZP3) was assessed against control sperm droplets of culture medium from non-transfected PA-1 cells (NT). Also, competitive HZAs were carried out where the test sperm droplet (culture medium from non-transfected PA-1 cells, NT) was assayed against sperm culture medium. Three pairs of matching hemizonae were tested per dose per experiment in a total of three different ejaculates. These studies were carried out in order to examine the specificity of the effect of the rhZP3.

Series [5] concerns human sperm. Briefly: Acrosome reaction of live sperm by FITC-PSA, second series. The series is classed as cell-based. Here is the method:
Determination of the acrosome reaction—The proportion of live acrosome-reacted spermatozoa incubated under capacitating conditions was determined with the fluorescent probe fluorescein isothiocyanate-labeled Pisum Sativum Agglutinin (FITC-PSA, Sigma) after staining with a supravital stain (Hoechst 33258, Sigma) following established techniques (12,13). At least 200 sperm per sample were evaluated in duplicate at 600× magnification using an epifluorescence microscope equipped with phase-contrast optics (Optiphot; Nikon, Melville, N.Y.). Slides were coded and read in a blind fashion.
A calcium ionophore agent (A23187, Sigma) tested at 5 μM and human acid solubilized zona pellucida tested at a final concentration of 4 zona/10 μl were used as positive controls (20). In further experiments, the acrosomal status was assessed by transmission electron microscopy. Spermatozoa were fixed by mixing sperm suspensions with equal volumes of 2% (v/v) glutaraldehyde (in 3 mM CaCl2 and 0.1 M sodium cacodylate); thereafter, samples were dehydrated twice and prepared for thin sectioning using previously published procedures. Ultrastructural examination was performed with a transmission electron microscope (Jeol JEM-1200 EX II, Peabody, Mass.).
Experiment 2: Characterization of the acrosome reaction inducing activity of the rhZP3 in dose- and sperm capacitation-dependency studies—Motile sperm fractions from 29 ejaculates of 11 different donors were incubated under capacitating conditions for 3 hours and assayed for acrosome reaction using FITC-PSA. Following swim-up, sperm aliquots were pre-incubated for 30 minutes with rhZP3 (30 ng/ml), A23187 (positive control), culture medium from non-transfected PA-cells (NT) or sperm culture medium (negative controls). This was the initially selected dose of rhZP3 to be tested as it had proven to effect significant inhibition of sperm-zona binding in the HZA.
The dose-dependent effect of rhZP3 on acrosome reaction was examined in the swim-up fractions obtained from four different donors. The fractions were capacitated for 3 hours and exposed for 30 min to rhZP3 at final concentrations of 0, 7.5, 15, 30, 60, 120, 240, 480, 960 and 1920 ng/ml. The capacitation-dependency of the acrosome reaction-inducing activity of rhZP3 was assessed in the swim-up fractions of four ejaculates from four different donors. Capacitation times included: 0 (immediately post-swim-up), 1, 4, 8, 12 and 24 hours. After the capacitation period, rhZP3 was added to the sperm suspension at a final concentration of 30 ng/ml.
In another set of experiments, three different ejaculates were used to compare the effects of the rhZP3 (tested at 500 ng/ml) with those of solubilized zonae pellucidae and the calcium ionophore. Further, the induction of the acrosome reaction was assessed in parallel with FITC-PSA and transmission electron microscopy. The goal of these studies was to compare the morphological features of the acrosome reaction between agonists and also between the agonist-induced and basal exocytosis rates.

[6] abbreviates: in the range of 500-2,000 ng/ml.

Read-outs that look alike come from different tables or passages of the source.

B1: rhZP3: recombinant human zona pellucida protein 3 with six-histidine tail, expressed in human ovarian PA-1 cells; secreted glycoprotein of approximately 65 Kd (protein)
chain: QPLWLLQGGASHPETSVQPVLVECQEATLMVMVSKDLFGTGKLIRAADLTLGPEACEPLVSMDTEDVVRFEVGLHECGNSMQVTDDALVYSTFLLHDPRPVGNLSIVRTNRAEIPIECRYPRQGNVSSQAILPTWLPFRTTVFSEEKLTFSLRLMEENWNAEKRSPTFHLGDAAHLQAEIHTGSHVPLRLFVDHCVATPTPDQNASPYHTIVDFHGCLVDGLTDASSAFKVPRPGPDTLQFTVDVFHFANDSRNMIYITCHLKVTLAEQDPDELNKACSFSKPSNSWFPVEGSADICQCCNKGDCGTPSHSRRQPHVMSQWSRSASRNHHHHHH
Turning to B1, the “range of maximal effect, acrosome reaction-inducing activity” value in series [1] is on record as 30-1,000 ng/ml. In addition, the “sperm motion parameters, treatment versus control” value in series [2] is given as “not significantly different”. Also, in series [3] (30 ng/ml, sperm pre-incubated 30 min), the “inhibition of sperm-ZP binding” value was “approximately 60%”. Also, the “HZI (Mean ± SEM)” value in series [3] (test reagent 30 ng/ml versus control 30 ng/ml NT) is recorded as 44.5 (3.6); in series [3] (test reagent 30 ng/ml versus control HTF/0.5% HSA, 30 min pre-incubation, 4 h with hemizona), 43.6 (3.3). Moreover, the entries for the “concentration range of highest (maximal) inhibition of binding” value in series [4] and in series [4] (listed as Recombinant hZP3) were 500 to 2000 ng/mL and 500-2,000 ng/ml, respectively. Further, in series [4] (30 min pre-incubation), the “minimally effective dose, inhibition of binding under HZA conditions” value was 30 ng/mL. For the same molecule, the “highest inhibition of binding” value in series [4] (setting [6]) was “approximately 70%”. The “HZI (Hemizona index)” value in series [4] (test reagent 30 ng/mL versus 30 ng/mL NT) was 44.5 ± 3.6; in series [4] (test reagent 30 ng/mL versus Ham's F-10/0.5% HSA), 43.6 ± 3.3; in series [4] (test reagent 500 ng/mL versus 500 ng/mL NT) it was 41.8 ± 1.9; in series [4] (test reagent 500 ng/mL versus Ham's F-10-0.5% HSA), 38.0 ± 2.7. Also, the “concentration of highest acrosome reaction-inducing activity” value in series [5] lay within 0.5 to 2 µg/mL. In addition, in series [5], the “concentration range of highest stimulation (maximal effects) of acrosome reaction” value is given as 500-2,000 ng/ml. The “potency relative to CHO cell product” value in series [5] (0.5-2 μg/ml versus 15-20 μg/ml) is recorded as “at least 10 times”. Besides, in series [5] (3 h capacitation, 30 min exposure), the “minimally effective dose, induction of the acrosome reaction” value was determined as 30 ng/mL. Moreover, the “highest stimulation of acrosome reaction, increase from baseline conditions” value in series [5] (setting [6]) is listed as “approximately 210%”. Besides, in series [5] (rhZP3 30 ng/ml), the “capacitation time of maximal stimulation of acrosome reaction” value was 8 to 10 h. Besides, the “live, acrosome reacted sperm” value in series [5] (rhZP3 30 ng/ml, A23187 5 μM, 3 h capacitation, 30 min exposure) is recorded as 19±4.1%. Besides, the “induction of the acrosome reaction” value in series [5] (rhZP3 500 ng/ml, solubilized zona 4 zona/10 μl, A23187 5 μM) was determined as 28.2±5.6%.
